According to US20260167699A1 (Chugai, published 2026):

Target: T1, FcγRIIIa (human, UniProt P08637 17-208)
T1 construct: extracellular domain; also called 3a; FcγRIIIa extracellular domain
Experiment: SPR (Biacore);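 also: antibody variants captured on an SPR sensor chip, with FcγRIIIa passed over as analyte in HBS-EP+ buffer at 25 °C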

T1 sequence (P08637 other isoform, or with tags, fused parts or gaps): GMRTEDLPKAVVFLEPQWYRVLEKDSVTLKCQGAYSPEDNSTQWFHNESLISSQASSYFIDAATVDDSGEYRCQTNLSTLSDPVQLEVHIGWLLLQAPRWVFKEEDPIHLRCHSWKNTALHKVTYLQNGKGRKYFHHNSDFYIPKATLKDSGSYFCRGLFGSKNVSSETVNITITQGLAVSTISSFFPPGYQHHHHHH

| Binder | He/Con 3a |
| --- | --- |
| GpH7-A5/GpH7-B3 variant I336_08L/GpL16-k0 (antibody, human IgG1, kappa, copies: 1 + 1 + 2) heavy 1: not shown heavy 2: not shown light: DIVMTQSPLSLPVTPGEPASISCQASESLVHSNRNTYLHWYLQKPGQSPQLLIYKVSNRFSGVPDRFSGSGSGTDFTLKISRVEAEDVGVYYCSQNTHVPPTFGQGTKVEIERTVAAPSVFIFPPSDEQLKSGTASVVCLLNNFYPREAKVQWKVDNALQSGNSQESVTEQDSKDSTYSLSSTLTLSKADYEKHKVYACEVTHQGLSSPVTKSFNRGEC | 102 % of GpH7-A5/GpH7-B3/GpL16-k0 |
| GpH7-A5/GpH7-B3 variant I336_13S/GpL16-k0 (antibody, human IgG1, kappa, copies: 1 + 1 + 2) heavy 1: not shown heavy 2: not shown light: DIVMTQSPLSLPVTPGEPASISCQASESLVHSNRNTYLHWYLQKPGQSPQLLIYKVSNRFSGVPDRFSGSGSGTDFTLKISRVEAEDVGVYYCSQNTHVPPTFGQGTKVEIERTVAAPSVFIFPPSDEQLKSGTASVVCLLNNFYPREAKVQWKVDNALQSGNSQESVTEQDSKDSTYSLSSTLTLSKADYEKHKVYACEVTHQGLSSPVTKSFNRGEC | 97.1 % of GpH7-A5/GpH7-B3/GpL16-k0 |
| GpH7-A5/GpH7-B3 variant I336_15Y/GpL16-k0 (antibody, human IgG1, kappa, copies: 1 + 1 + 2) heavy 1: not shown heavy 2: not shown light: DIVMTQSPLSLPVTPGEPASISCQASESLVHSNRNTYLHWYLQKPGQSPQLLIYKVSNRFSGVPDRFSGSGSGTDFTLKISRVEAEDVGVYYCSQNTHVPPTFGQGTKVEIERTVAAPSVFIFPPSDEQLKSGTASVVCLLNNFYPREAKVQWKVDNALQSGNSQESVTEQDSKDSTYSLSSTLTLSKADYEKHKVYACEVTHQGLSSPVTKSFNRGEC | 83.4 % of GpH7-A5/GpH7-B3/GpL16-k0 |
| GpH7-A5/GpH7-B3 variant I336_10E/GpL16-k0 (antibody, human IgG1, kappa, copies: 1 + 1 + 2) heavy 1: not shown heavy 2: not shown light: DIVMTQSPLSLPVTPGEPASISCQASESLVHSNRNTYLHWYLQKPGQSPQLLIYKVSNRFSGVPDRFSGSGSGTDFTLKISRVEAEDVGVYYCSQNTHVPPTFGQGTKVEIERTVAAPSVFIFPPSDEQLKSGTASVVCLLNNFYPREAKVQWKVDNALQSGNSQESVTEQDSKDSTYSLSSTLTLSKADYEKHKVYACEVTHQGLSSPVTKSFNRGEC | 114 % of GpH7-A5/GpH7-B3/GpL16-k0 |
| GpH7-A5/GpH7-B3 variant I336_12R/GpL16-k0 (antibody, human IgG1, kappa, copies: 1 + 1 + 2) heavy 1: not shown heavy 2: not shown light: DIVMTQSPLSLPVTPGEPASISCQASESLVHSNRNTYLHWYLQKPGQSPQLLIYKVSNRFSGVPDRFSGSGSGTDFTLKISRVEAEDVGVYYCSQNTHVPPTFGQGTKVEIERTVAAPSVFIFPPSDEQLKSGTASVVCLLNNFYPREAKVQWKVDNALQSGNSQESVTEQDSKDSTYSLSSTLTLSKADYEKHKVYACEVTHQGLSSPVTKSFNRGEC | 88.8 % of GpH7-A5/GpH7-B3/GpL16-k0 |
| GpH7-A5/GpH7-B3 variant I336_11K/GpL16-k0 (antibody, human IgG1, kappa, copies: 1 + 1 + 2) heavy 1: not shown heavy 2: not shown light: DIVMTQSPLSLPVTPGEPASISCQASESLVHSNRNTYLHWYLQKPGQSPQLLIYKVSNRFSGVPDRFSGSGSGTDFTLKISRVEAEDVGVYYCSQNTHVPPTFGQGTKVEIERTVAAPSVFIFPPSDEQLKSGTASVVCLLNNFYPREAKVQWKVDNALQSGNSQESVTEQDSKDSTYSLSSTLTLSKADYEKHKVYACEVTHQGLSSPVTKSFNRGEC | 94.4 % of GpH7-A5/GpH7-B3/GpL16-k0 |
| GpH7-A5/GpH7-B3 variant I336_14T/GpL16-k0 (antibody, human IgG1, kappa, copies: 1 + 1 + 2) heavy 1: not shown heavy 2: not shown light: DIVMTQSPLSLPVTPGEPASISCQASESLVHSNRNTYLHWYLQKPGQSPQLLIYKVSNRFSGVPDRFSGSGSGTDFTLKISRVEAEDVGVYYCSQNTHVPPTFGQGTKVEIERTVAAPSVFIFPPSDEQLKSGTASVVCLLNNFYPREAKVQWKVDNALQSGNSQESVTEQDSKDSTYSLSSTLTLSKADYEKHKVYACEVTHQGLSSPVTKSFNRGEC | 103 % of GpH7-A5/GpH7-B3/GpL16-k0 |
| GpH7-A5/GpH7-B3 variant I336_09D/GpL16-k0 (antibody, human IgG1, kappa, copies: 1 + 1 + 2) heavy 1: not shown heavy 2: not shown light: DIVMTQSPLSLPVTPGEPASISCQASESLVHSNRNTYLHWYLQKPGQSPQLLIYKVSNRFSGVPDRFSGSGSGTDFTLKISRVEAEDVGVYYCSQNTHVPPTFGQGTKVEIERTVAAPSVFIFPPSDEQLKSGTASVVCLLNNFYPREAKVQWKVDNALQSGNSQESVTEQDSKDSTYSLSSTLTLSKADYEKHKVYACEVTHQGLSSPVTKSFNRGEC | 102 % of GpH7-A5/GpH7-B3/GpL16-k0 |
